These results are taken from patent US20100173324A1.

The target in this test is human CD27 expressed on CHO/DG44 cells (normal O-linked sugar chain) (human) (UniProt P26842). In words: flow cytometry on CD27/DG44-4 cells.
Sequence of UniProt P26842 (P26842 20-260 H233R limits assumed): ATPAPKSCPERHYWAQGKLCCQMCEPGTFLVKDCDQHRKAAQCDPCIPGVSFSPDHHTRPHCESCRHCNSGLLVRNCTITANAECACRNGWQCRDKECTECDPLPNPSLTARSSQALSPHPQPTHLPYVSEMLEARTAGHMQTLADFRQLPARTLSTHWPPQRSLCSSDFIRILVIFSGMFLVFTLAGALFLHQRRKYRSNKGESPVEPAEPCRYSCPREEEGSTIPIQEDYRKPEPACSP

The term EC50 (read off the curve) denotes the concentration at which the effect is half-maximal. Read a low EC50 (read off the curve) as higher potency in that assay. For the substance Anti-CD27 Antibody (O323), the EC50 (read off the curve) was 0.2 µg/mL.
